# Results reported in publication PMC12865202.
# Biological target: Chicken CapZ (full length α/β) (chicken) (UniProt P13127)
# Experiment: ITC
substance,measurement,value
"RavB (full length, purified) (natural protein)",Kd,0.0108 µM
